# Assay results reported in US11994512B2, “Single-cell genomic methods to generate ex vivo cell systems that recapitulate in vivo biology with improved fidelity” (Massachusetts Institute of Technology, priority 2018, dated 2024).
# Tested on: intracellular proteome of ENR+CD and ENR organoids
# Assay: LC-MS/MS TMT proteomics of ENR+CD versus ENR organoids
# Assay type: cell-based, C57BL/6 mice
# Conditions: for Average logFC: ENR+CD versus ENR organoids, sample pairs in aggregate (n=4, 2 technical replicates from two biological donors); for M1-1 Log2 Median Normalized / M1-2 Log2 Median Normalized / M2-1 Log2 Median Normalized / M2-2 Log2 Median Normalized: protein abundance ratio ENR+CD versus ENR organoids, LC-MS/MS TMT proteomics; for M1-1 Log2 Median Normalized: sample pair M1-1; for M1-2 Log2 Median Normalized: sample pair M1-2; for M2-1 Log2 Median Normalized: sample pair M2-1; for M2-2 Log2 Median Normalized: sample pair M2-2; for change: up = enriched in ENR+CD, down = enriched in ENR, FDR<0.05 and log fold change cut-off
Molecule,Average logFC,M1-1 Log2 Median Normalized,M1-2 Log2 Median Normalized,M2-1 Log2 Median Normalized,M2-2 Log2 Median Normalized,change
"Q99LZ3 (protein, UniProt Q99LZ3 1-223, looked up, full-length) MTEVLDLHGQDSDGGSEEMVLTPAELIEKLEQAWMNEKFAPELLESKAEIVECVMEQLEHMEENLRRAKKGDLKVSIHRMEMERIRYVLSSYLRCRLMKIEKFFPHILEKEKVRSEGEPSSLSPEEFVFAKEYMDHTETHFKNVALKHMPPNLQKVDLLRAVPKPDLDSYVFLRVKERQENILVEPEADEQRDYVIDLEVGSQHLIRYKTIAPLVASGAVQLI",−1.212,−1.61,−1.013,−0.7435,−1.481,down
"Q99LD8 (protein, UniProt Q99LD8 1-285, looked up, full-length) MGTPGEGLGRCSHALIRGVPESLASGEGAGAGLPALDLAKAQREHGVLGGKLRQRLGLQLLELPPEESLPLGPLLGDTAVIQGDTALITRPWSPARRPEVDGVRKALQDLGLRIVEMGDENATLDGTDVLFTGREFFVGLSKWTNHRGAEIVADTFRDFAVSTVPVSGSSHLRGLCGMGGPRTVVAGSSEAAQKAVRAMAALTDHPYASLTLPDDAASDCLFLRPGLPGATPFLLHRGGGDLPNSQEALQKLSDVTLVPVSCSELEKAGAGLSSLCLVLSTRPHC",1.289,1.314,1.577,1.1265,1.14,up
"Q99M01 (protein, UniProt Q99M01 1-451, looked up, full-length) MVCLALVRAAYEHIYLVRKVSHACRCHQHRAWSSKPAASQSAVQGAPGSVLEILGKSYPQDDHTNLTQKVLSKVGRNLHNQKFHPLWLIKERVKEHFYQQYMVRSRTPLFSVYDQLPPVVTTWQNFDSLLIPADHPSRKKGDNYYLNRAHMLRAHTSAHQWDLLHAGLNAFLVVGDVYRRDQIDCQHYPVFHQLEGVRLFSKHELFAGVKDGESLQLFEEGSRSAHKQETHTMEAVKLVEFDLKQVLTRLVTHLFGDGLEVRWVDCYFPFTHPSFEMEINFRGEWLEVLGCGVMEQQLVNSAGAQDRIGWAFGLGLERLAMVLYDIPDIRLFWSEDERFLKQFLLSDINQSVKFQPLSKYPAVFNDISFWLPSENYTENDFYDIVRTVGGDLVEKVDLIDKFEHPKTHRTSHCYRITYRHMERTLSQREVGNVHQAVQEAAVQLLGVEGRF",−1.171,−0.869,−0.578,−1.7495,−1.486,down
"Q99M54 (protein, UniProt Q99M54 1-266, looked up, full-length) MGSTQSVSGTPARPLPRNKQVARVADPRSPSAGIQRTPIQVESSPQPSLPAEQLNGLKQAQDPDPRSPTLGIARTPMKISGPDPQCSLVKELSEVLETEASESISSPELALPRETPLFYDLDLSSDPQLSPEDQLLPWSQAELDPKQVFTKEEAKQSAETIAASQNSDKPSRDPETPQSSGSKRSRRKANSKVLGRSPLTILQDDNSPGTLTLRQGKRPSALSENVKDLKEGVVLGTGRFLKAGGGAREPNQDHDKENQHFALLES",–,−1.383,−1.488,−0.4185,−1.548,down
"Q921T2 (protein, UniProt Q921T2 1-595, looked up, full-length) MAGERWQAEGPGEGWAIYVTPRAPIREGRRRLDPRNGDSSDAPAYGAHPSRRGRREVRFSEEPAEVYGDFEPRAAKERSPGGRRTPPEKFRPASAGEEVRESAYNLRSRPRRQRRAQEAEEMKTRRSARLEQHSQQPQLSPATSGRGLRDSPSSSEDREEDEPSSRPVTSQTASKKTLRTPEASVMNEDPISNLCRPPLRSPRLDSTYQTNGNTKTNEREATIVQQVNFFEEGETEDDLESSYSDITIRARSSDSLESRDEATPAAGNHPDSLRGLPHNQDFPAHENQPLLLTSGCQENPQEWVDRAVRMRSRMAYNNIQKSNFGNQSPSTSRPQSAIHHPNEPSVKIKWWLLGLVAILAVGLFWFFHTPAVETTAVQEFQNQMKQLQSKYQSQNEKLWKRGTTFLEKHLNSSLPRPQPAILLLTAAQDAAEVLKCLSEQIADAYSSFRSVRAIRIDGAGKAAQDSDLVKHEVDQELTDGFKNGQNAAVVHRFESLPAGSTLIFYKYCDHENAAFKDVALVLTVLLEEKTLEASLGLKEIEEKVRDFLKVKFTSSSTASSYNHMDPDKLNGLWSRISHLVLPVQPENTLKAGSCL",1.217,1.233,1.176,1.0935,1.365,up
"Q99PG0 (protein, UniProt Q99PG0 1-398, looked up, full-length) MGKTISLLISVVLVAYYLYIPLPDAIEEPWKVVWETAFVKIGTDLASFGELLGISHFMETIQLLMSFQEVPPTSDEHVTVMETAFDSVPVRIYIPKRKSMALRRGLFYIHGGGWCLGSAAHFSYDTLSRWTAHKLDAVVVSTDYGLAPKHHFPRQFEDVYRSLRWFLQEDVLEKYGVDPRRVGVSGDSAGGNLAAAVTQQLIQDPDVKIKLKVQALIYPALQALDTNVPSQQEGSHFPVLTRSLMVRFWSEYFTTDRGLEKAMLLNQHVPMESSHLLQFVNWSSLLPERYKKSPVYKNPTPGSSELAQKYPGFIDVKACPLLANDNILHHLPKTYIITCQYDVLRDDGLMYVKRLQNVGVHVTHHHVEDGFHGTFSFPGLKLSERMKNQYLSWLIKNL",–,−1.606,−1.392,−2.1105,−1.558,down
"Q921X9 (protein, UniProt Q921X9 1-517, looked up, full-length) MARAWGLLLAIGVVLPTWLSSTKVSSLIERISDPKDLKKLLRTRNNVLVLYSESEVAAESHLKLLSTVAQAVKGQGTVCWVDCGDAESRKLCKKMKVDLSPKDKKIELFHYQDGAFHMQYDRAVTLKSIVAFLKDPKGPPLWEEDPGAKDVVHIDSEKDFRRLLKREEKPLLMMFYAPWCSMCKRIMPHFQKAATQVRGHIVLAGMNVYPSEFENIKEEYNVRGYPTICYFEKGRFLFPYENYGSTAEDIVEWLKNPLPPQPQVPETPWADEGGSVYHLTDEDFDQFVKEHSSVLVMFHAPWCGHCKKMKPEFESAAEVLHGDAESSGVLAAVDATVNEALAGRFHISAFPTLKYFKNGEQQAVPALRTKKKFIEWMQNPEAPPPPEPTWEEQQTSVLHLVGDNFRDTLKKKKHTLVMFYAPWCPHCKKVIPHFTATADAFKEDRKIACAAVDCVKDKNQDLCQQEAVKAYPTFHYYHYGKLVEKYESDRTELGFTSFIRTLREGDLKRLEKRREEL",1.302,1.535,1.138,1.0115,1.523,up
"Q91Y74 (protein, UniProt Q91Y74 1-333, looked up, full-length) MTSKSHWKLLALALVLVVVMVWYSISREDRYIEFFYFPISEKKEPCFQGEAERQASKIFGNRSREQPIFLQLKDYFWVKTPSTYELPFGTKGSEDLLLRVLAITSYSIPESIKSLECRRCVVVGNGHRLRNSSLGGVINKYDVVIRLNNAPVAGYEGDVGSKTTIRLFYPESAHFDPKIENNPDTLLVLVAFKAMDFHWIETILSDKKRVRKGFWKQPPLIWDVNPKQVRILNPFFMEIAADKLLSLPIQQPRKIKQKPTTGLLAITLALHLCDLVHIAGFGYPDASNKKQTIHYYEQITLKSMAGSGHNVSQEAIAIKRMLEMGAVKNLTYF",−1.232,−0.783,−1.258,−1.9425,−0.946,down
"Q920F6 (protein, UniProt Q920F6 1-1248, looked up, full-length) MGHLELLLVENFKSWRGRQVIGPFKRFTCIIGPNGSGKSNVMDALSFVMGEKTTNLRVKNIQELIHGAHTGKPVSSSASVTIIYIEDSGEEKTFTRIIRGGCSEYHFGDKPVSRSVYVAQLENIGIIVKAQNCLVFQGTVESISMKKPKERTQFFEEISTSGEFIGEYEAKKKKLQKAEEDAQFHFNVKKNVAAERKHAKIEKEEAEHYQNLLEELKINKIQLMLFQLYYNEEKINVLNTELEQMDGNLSVVKDTLSHHENIFKAKKKDYGMLTRQLQQTAKELKSVEAILNQKRPQYIKAKENTSHHLKKLDLSKKLITDNEKQCSKQEDGIRALVAELADLDRAWKSFEKQMEEKILQKGRDIELENSQLDRYKLLKEQVRRKVGIMTQQLEKLQWEQKAEKERLAFEKRRHGDTQGNLKQIKEQIEEHKKRIEKLEEYTKTCMDCLEDKKQQEEALKKEIENTKSRMSEVNEELSLIRNELQNAGIDNHEGKRQQKRAEVLEHLKRLYPDSVFGRLLDLCHPIHKKYQLAVTKLFGRYMVAIVVASEKIAKDCIRFLKAERAEPETFLALDYLDIKPINERLREIKGCKMMIDVIKTQFPQLKKVIQFVCGNGLVCETVEEARHIAFGGPERRKAVALDGTLFLKSGVISGGSSDLKHKALCWDEKELHNLRDKRSQLVQELKELMKTLRKETDLKQIQTLVQGTNTRLKYSQNELEMIKKKHLATFYREQSQLQSELLNIDSQCTMLSEGINKQQQKIEEFQDKIDEVEDDIFQDFCEEIGVENIREFENKHVKQQQENDQKRLEFEKQKTRLNIQLEYSRNQLKKKLNNIDTLKTTIQKGKEDIDNLKKTEEECLKIVEELMVKQEQIKEVLATQSSNIEKIHIQIEEERKKVLAVDREVGKLQKEVVIIQGSLEQKLLEKHNLLLDCKVQDIDISLVLGSLEDIIEMELTETESTQATADIYEKEASIQIDYSPLREDLKALQSDKEVEAHLTLLLQQVASQENTLLKTTAPNLRAQENLKTVRDKFQESADVFEASRKEARICRQEFEQVKRRRYDAFSQCFEHISVSIDQIYKKLCRNNSAQAFLSPENPEEPYLDGISYNCVAPGKRFMPMDNLSGGEKCVAALALLFAVHSFRPAPFFVLDEVDAALDNTNIGKVSSYIKEQSQEQFQMIIISLKEEFYSKADALIGVYPEHNECMFSHVLTLDLSKYPDTEDQEGSRSHRKPRVPRVSMSPKSPQSR",−1.932,−1.931,−0.989,−2.1915,−1.967,down
